Experimental data from patent US20250304913A1.

How the values were obtained:
OT-I TCR [1] = assay: cell-based or functional assay
OT-I TCR [2] = assay: cell-based or functional assay; remark: listed apart in the source

Molecule | proportion of surviving OT-I cells after 18 hours of co-culture (OT-I TCR [1]) [%] | proportion of surviving OT-I cells after 36 hours of co-culture (OT-I TCR [1]) [%] | proportion of surviving OT-I cells after 60 hours of co-culture (OT-I TCR [1]) [%] | IFN-gamma positive bait CAR T cells in the presence of OT-I target cells (OT-I TCR [2]) [%] | IL-2 positive bait CAR T cells in the presence of OT-I cells (OT-I TCR [2]) [%] | OT-I cells remaining in the population after 48 hours of co-culture (competitive survival assay) (OT-I TCR [2]) [%] | activation of bait CAR T cells (expression of CD107a) in the presence of OT-I T cells (OT-I TCR [2]) [%] | degranulation of OT-I T cells (CD107a-positive) in co-culture with bait CAR T cells (OT-I TCR [2]) [%]
OVA-MHCI Bait-CD3Zeta Fully Live CAR (peptide-MHC) | 32.1 | 19.5 | 0.69 |  |  |  |  | 
OVA-MHCI Bait-SIINFEKL CAR (peptide-MHC) SIINFEKLGGGGSGGGGSGGGGSIQKTPQIQVYSRHPPENGKPNILNCYVTQFHPPHIEIQMLENGKKIPKVEMSDMSFSKDWSFYILAHTEFTPTETDTYACRVKHASMAEPKTVYWDRDMGGGGSGGGGSGGGGSGGGGSGPHSLRYFVTAVSRPGLGEPRYMEVGYVDDTEFVRFDSDAENPRYEPRARWMEQEGPEYWERETQKAKGNEQSFRVDLRTLLGYYNQSKGGSHTIQVISGCEVGSDGRLLRGYQQYAYDGCDYIALNEDLKTWTAADMAALITKHKWEQAGEAERLRAYLEGTCVEWLRRYLKNGNATLLRTDSPKAHVTHHSRPEDKVTLRCWALGFYPADITLTWQLNGEELIQDMELVETRPAGDGTFQKWASVVVPLGKEQYYTCHVYHQGLPEPLTLRWEIEFMYPPPYLDNERSNGTIIHIKEKHLCHTQSSPKLFWALVVVAGVLFCYGLLVTVALCVIWTNSRRNRGGQSDYMNMTPRRPGLTRKPYQPYAPARDFAAYRPRAKFSRSAETAANLQDPNQLFNELNLGRREEFDVLEKKRARDPEMGGKQQRRRNPQEGVYNALQKDKMAEAYSEIGTKGERRRGKGHDGLFQGLSTATKDTFDALHMQTLAPR |  |  |  | 11.4 | 14.9 | 5.01 | 24.8 | 80.4
